Test results: the supplement of paper PMC7125110
± gives the standard error. For some of these results: This sample holds only a part of the variants without activity.

B1: glmS ribozyme (parent)
chain: AUAAAAGCGCCAGAACUACAGAAAUGUAGUUGACGAGGAGGAGGUUUAUCGAAUUUUCGGCGGAUGCCUCCAAA

Tests used:
Details in all cases: with glucosamine-6-phosphate
[1] = variants of: B1; assay: kcat; higher = faster cleavage; RNA array
Outline: (§1)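 Using a hybridised Cy3 probe at 37 °C, barcoded ribozyme variants transcribed in situ by E. coli RNA polymerase on sequenced MiSeq chips were monitored across tiles imaged over ~14 h. The flow contained glucosamine-6-phosphate from 40 μM to 10 mM in HEPES/KCl/Mg(OAc)2 buffer. Signals were normalised to baseline and to non-cleaving reference variants before per-tile medians were fit to one- or two-exponential decays to yield kobs. Weighted Michaelis–Menten fits across concentrations gave kcat and KM.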

[2] = variants of: B1; assay: self-cleavage kobs at 10000 uM GlcN6P; higher = faster cleavage; RNA array
Outline: as §1

[3] = variants of: B1; assay: self-cleavage kobs at 160 uM GlcN6P; higher = faster cleavage; RNA array
Outline: as §1

[4] = variants of: B1; assay: self-cleavage kobs at 640 uM GlcN6P; higher = faster cleavage; RNA array
Outline: as §1

[5] = variants of: B1; assay: self-cleavage kobs at 2500 uM GlcN6P; higher = faster cleavage; RNA array
Outline: as §1

[6] = variants of: B1; assay: KM; higher = weaker cofactor use; RNA array
Outline: as §1

[7] = variants of: B1; assay: self-cleavage kobs at 40 uM GlcN6P; higher = faster cleavage; RNA array
Outline: as §1

| Variant | kcat [1] [s⁻¹] | self-cleavage kobs at 10000 uM GlcN6P [2] [s⁻¹] | self-cleavage kobs at 160 uM GlcN6P [3] [s⁻¹] | self-cleavage kobs at 640 uM GlcN6P [4] [s⁻¹] | self-cleavage kobs at 2500 uM GlcN6P [5] [s⁻¹] | KM [6] [µM] | self-cleavage kobs at 40 uM GlcN6P [7] [s⁻¹] |
| --- | --- | --- | --- | --- | --- | --- | --- |
| A12C C61A | < 1e-05 | < 1e-05 |  |  |  |  |  |
| A12U A48U | 0.0014 ± 0.00052 | 0.00139 ± 0.00023 | 7.62e-05 ± 1.5e-05 | 0.00024 ± 3.3e-05 | 0.000479 ± 6.9e-05 |  |  |
| A12C U69G | 6.77e-05 ± 5.2e-06 | 5.86e-05 ± 7.7e-06 | 5.5e-05 ± 1.2e-05 | 6.7e-05 ± 8.9e-06 | 7.6e-05 ± 9.1e-06 |  |  |
| A12C U69C | 0.0042 ± 0.0012 | 0.00396 ± 0.00074 | 0.000486 ± 0.00013 | 0.000885 ± 0.0002 | 0.00295 ± 0.00069 | 1520 ± 630 | 0.000133 ± 2.3e-05 |
| A12U U45G | 0.0202 ± 0.0044 | 0.0165 ± 0.0026 | 0.00127 ± 0.00021 | 0.00546 ± 0.0011 | 0.0134 ± 0.0027 | 1870 ± 530 | 0.000515 ± 6.4e-05 |
| C11U G66A U69A | 5.61e-05 ± 6.6e-06 | 6.32e-05 ± 1.9e-05 |  | 4.24e-05 ± 1.5e-05 | 4.46e-05 ± 1.3e-05 |  |  |
| A12G G40A | 0.000633 ± 0.00014 | 0.000486 ± 6.3e-05 | 1.6e-05 ± 7.3e-06 | 9.61e-05 ± 8.9e-06 | 0.000218 ± 2.3e-05 | 4040 ± 1300 |  |
| A12U G13U | 0.000141 ± 9.1e-06 | 0.000123 ± 1.8e-05 |  | 5.07e-05 ± 9.6e-06 | 9.95e-05 ± 1.1e-05 | 1130 ± 200 |  |
| A12U U31G U47C | 0.000915 ± 0.00036 | 0.000748 ± 0.00013 |  | 0.000923 ± 0.00024 | 0.00136 ± 0.00036 |  |  |
| C11U U30C | 0.000527 ± 0.00014 | 0.000465 ± 9.9e-05 | 5.41e-05 ± 2.1e-05 | 9.85e-05 ± 1.3e-05 | 0.000213 ± 4.9e-05 | 2780 ± 1100 |  |
| A12C G38C | 1.42e-05 ± 5.2e-06 |  |  |  |  |  |  |
| A12C G38U | < 1e-05 |  |  |  |  | 1280 ± 390 |  |
| A12U A42C | 2.16e-05 ± 2.9e-06 | 1.89e-05 ± 8.5e-06 |  |  | 1.75e-05 ± 7.1e-06 |  | < 1e-05 |
| A12U U46C | 0.0152 ± 0.0021 | 0.0123 ± 0.0017 | 0.00106 ± 0.00025 | 0.00223 ± 0.00068 | 0.00688 ± 0.0018 | 2700 ± 520 | 0.000227 ± 3.3e-05 |
| A12G A42U A53C | < 1e-05 |  |  |  |  |  | < 1e-05 |
| A12C U55C | 0.00941 ± 0.0032 | 0.00731 ± 0.0019 | 0.000402 ± 8.8e-05 | 0.00235 ± 0.00034 | 0.00417 ± 0.00083 | 2710 ± 1200 | 0.000147 ± 2.6e-05 |
| A12C U55A | 0.0159 ± 0.0051 |  | 0.00192 ± 0.00036 | 0.00819 ± 0.0014 | 0.0112 ± 0.0021 | 888 ± 360 | 0.000742 ± 8.1e-05 |
| G13A A14G | 0.00208 ± 0.00043 | 0.00151 ± 0.00023 | 7.81e-05 ± 1.4e-05 | 0.000393 ± 6.9e-05 | 0.000888 ± 0.00012 | 3430 ± 1000 | 3.73e-05 ± 1.1e-05 |
| A12U G43A | 0.000218 ± 2.6e-05 | 0.000173 ± 2.2e-05 |  | 4.88e-05 ± 1e-05 | 0.000139 ± 1.8e-05 | 2010 ± 540 |  |
| A12U G44C | 0.000244 ± 2.8e-05 | 0.000195 ± 2.3e-05 |  | 5.33e-05 ± 1.1e-05 | 0.000168 ± 2.9e-05 | 2040 ± 560 |  |
| C11U U55A | 0.00167 ± 0.0004 | 0.0018 ± 0.00026 | 0.000177 ± 3.7e-05 | 0.000478 ± 9.1e-05 | 0.000891 ± 0.0002 | 1260 ± 470 | 6.97e-05 ± 1.2e-05 |
| C11U U55C | 0.00286 ± 0.00063 | 0.00181 ± 0.0003 | 6.7e-05 ± 1.2e-05 | 0.00029 ± 4.1e-05 | 0.000776 ± 0.0001 | 6220 ± 1800 |  |
| C11U U55G | 0.0019 ± 0.00039 | 0.00164 ± 0.00016 | 0.000214 ± 4.9e-05 | 0.000351 ± 7.6e-05 | 0.00137 ± 0.00026 | 1700 ± 660 | 5.89e-05 ± 1.1e-05 |
| A12C A14U | 0.000416 ± 3.2e-05 | 0.000348 ± 2.9e-05 | 3.61e-05 ± 9.3e-06 | 9.07e-05 ± 1e-05 | 0.000202 ± 2.4e-05 | 2270 ± 350 |  |
| A12U C16A U56A | 0.00194 ± 0.00074 | 0.00247 ± 0.00041 |  | 0.000636 ± 0.00015 | 0.00102 ± 0.00035 |  | 0.000111 ± 2e-05 |
| A12G A14G | 0.00308 ± 0.00041 | 0.00203 ± 0.00016 | 8.41e-05 ± 1.3e-05 | 0.000405 ± 4.5e-05 | 0.00121 ± 0.00015 | 4770 ± 950 | 2.51e-05 ± 6.2e-06 |
| C11U U45G | 0.000317 ± 6.8e-05 | 0.000222 ± 4.3e-05 |  |  | 0.000172 ± 6.6e-05 |  |  |
| A12G C68U | 0.000271 ± 1.9e-05 | 0.000219 ± 1.5e-05 | 3.11e-05 ± 1.2e-05 | 5.55e-05 ± 6.8e-06 | 0.000137 ± 1.5e-05 | 2400 ± 390 |  |
| A12U G29U G59U C68G C70A | 3.34e-05 ± 1.4e-05 |  |  | 4.93e-05 ± 2.3e-05 |  |  |  |
| A12U A64U | 0.00027 ± 2.8e-05 | 0.000211 ± 1.4e-05 |  | 5.21e-05 ± 5.8e-06 | 0.000168 ± 1.8e-05 | 2420 ± 540 |  |
